Assay results reported in article doi:10.1101/2022.02.08.479534, “FoxP3 can fold into two distinct dimerization states with divergent functional implications for T cell homeostasis”.

Assays:
Assay in all cases: EMSA; EMSA: 0.2 uM DNA, 20 mM Tris pH 7.5, 150 mM NaCl, 1.5 mM MgCl2, 2 mM DTT, 30 min at 4 C; anti-HA bead DNA pull-down: 20 min at room temperature; the EMSA IR-FKHM4g length is taken as 31 bp
FoxP3ΔN' = target: T1, FoxP3ΔN' (Mus musculus, UniProt Q99JB6 204-417, C217S;C231S;del277-304); conditions: protein: recombinant; tags: His6-NusA cleaved; chain copies: 2; blunt
T1 sequence: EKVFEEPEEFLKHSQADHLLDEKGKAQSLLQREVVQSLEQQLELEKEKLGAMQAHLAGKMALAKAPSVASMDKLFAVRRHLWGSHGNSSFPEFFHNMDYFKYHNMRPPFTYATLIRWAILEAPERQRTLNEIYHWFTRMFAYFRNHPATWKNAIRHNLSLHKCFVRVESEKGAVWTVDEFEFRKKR

FoxP3ΔN = target: T2, FoxP3ΔN (Mus musculus, UniProt Q99JB6 188-423); conditions: protein: recombinant; tags: His6-NusA cleaved (HRV3C); chain copies: 2; blunt
T2 sequence: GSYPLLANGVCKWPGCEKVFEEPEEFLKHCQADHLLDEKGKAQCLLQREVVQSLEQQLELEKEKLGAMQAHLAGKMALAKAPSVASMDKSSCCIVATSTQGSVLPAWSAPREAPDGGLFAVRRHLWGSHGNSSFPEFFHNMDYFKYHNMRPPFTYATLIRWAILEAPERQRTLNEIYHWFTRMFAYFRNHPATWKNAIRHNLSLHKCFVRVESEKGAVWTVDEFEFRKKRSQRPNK

NusA-FoxP3RBR-forkhead = target: T3, NusA-FoxP3RBR-forkhead (Mus musculus, UniProt Q99JB6 284-423); conditions: protein: recombinant; tags: His6-NusA; blunt
T3 sequence: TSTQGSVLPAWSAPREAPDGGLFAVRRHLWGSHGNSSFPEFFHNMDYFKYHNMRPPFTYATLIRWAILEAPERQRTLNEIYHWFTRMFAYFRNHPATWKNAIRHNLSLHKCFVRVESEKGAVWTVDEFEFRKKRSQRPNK

Measured: binding result

B1: IR-FKHM4g (31bp) (dsDNA)
DNA 1: TTAGGAAAATTTGTTTACTCGAGTAAACAAA
DNA 2: TTTGTTTACTCGAGTAAACAAATTTTCCTAA
binds: all assays above
